Source: the supplement of paper PMC9170038

System: MS2 coat protein
Assay: apparent KD of MS2 coat protein; higher = weaker reporter binding
Settings: Eterna round: R107
Description: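 RNA-MaP round R107: designed RNA switches with theophylline, tryptophan, arginine or FMN aptamers are transcribed on-chip within common flanks. They are titrated with SNAP-549-labelled MS2 coat protein in RNA-MaP buffer (100 mM Tris pH 7.5, 80 mM KCl, 4 mM MgCl2), without ligand or with the indicated ligand. Median apparent KD per design.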

[1] = input ligand: theophylline 20 uM
[2] = input ligand: theophylline 2 mM
[3] = input ligand: tryptophan 2.4 mM

Sequence | apparent KD of MS2 coat protein (input ligand: arginine 13.2 mM) [nM] | apparent KD of MS2 coat protein (input ligand: none) [nM] | apparent KD of MS2 coat protein [1] [nM] | apparent KD of MS2 coat protein [2] [nM] | apparent KD of MS2 coat protein [3] [nM]
UCAGUGCAAGGAAGGAGCGGGUACAUGAGGAUCACCCAUGUGCAAGUGGUGAGCGUCCGUGCCCAGGUAGGUCGCCUAGCCUGGU [Quisso] | 56 | 109 | 180 | 149 | 101
UAUAAUAACUCGGCCGCCACUGGCACAUGAGGAUCACCCAUGUCUAUAUAUAAUAUAUAGUUGCACAGGACCGGGAGAUAUAUAU [Exclusion - Tryptophan B] | 10.5 | – | 12.5 | 10.5 | –
UACAUGAGGAUCACCCAUGUAUAGAGGGAUACCAGUGUCAGUGAGCACCCUUGGCAGCCCGCGAACAAUGGGUGCGCUAUAUAGU [#20 Exclusion-TheophyllineA] | 18.2 | – | 46.8 | – | 28
UGUAUGUGAUCUGAUACCAGUCCAACUGGUAAAACCUGAGGAUCACCCGGGUAAAAUUGGGACCCUUGGCAGCAGAUCGCAUACU | 201 | 475 | 285 | 26 | 683
AGGUGACAUGAGGAUCACCCAUGUGGCUUACGAGGACCGGUACGGCCGCCACUCGGUGUGACCUCCGCAUUCACAUAAUAAUCUU [Rilala] | 37.4 | – | 131 | 126 | –
GGCACAUAGUCGGCCGCCACUAGUGGGAAAUGGGAGAACAUGAGGAUCACCCAUGUAUUAUAGCCUAGGACCGGGACUAUGUGCC [Mammoth] | 145 | – | 196 | 259 | –
UGGGUAGCAUAGCUUGAUAGCUACACUGAAGGAGCGAGGAUAACCUCAGGUAGGUCGCAGACAUGAGGAUCACCCAUGUAGAUGG [Same State Arginine A GF18] | 63.9 | 186 | 359 | 231 | 276
UCGAAUGCGGCGGCCGCCACUCGCGGAUAACGAUAGCUUAACAUGAGGAUCACCCAUGUGUCAUGGAGGACCGGGCCCAUACGGU [kmkmullin] | 13.5 | 17 | 23.2 | 18.7 | 14.3
ACAUGAGGAUCACCCAUGUGAUGGCGCGAUACCAGCUGAUCCCGUGGCCCUUGGCAGCGUCCGGUGUGGUCCGGCGGGUGGGACG [khkmullin] | 91.4 | 20.8 | 31.7 | 31 | 24.2
UUAUUUAUAAUGGAUACCAGUAUAAUGGCCGCAAAUCCUGACAUGAGGAUCACCCAUGUAUGCCCUUGGCAGCUGUUAUGGGUUU [XTheo B #23] | 34.7 | – | 51.2 | – | 38.7
UCGCUCUGGGUGAAUCCCAGAGAUGUGGAAGGAGCGGACGAAAGUCCAGGUAGGUCGCCAUCGAACAUGAGGAUCACCCAUGUAC [Same State - Arginine A (Freestyle 26)] | 42.7 | 46 | 77.5 | 75.6 | 46.2
AUAACAUGAGGAUCACCCAUGUAAGCAGAUACCAGCUAGGAAACUAGCCCUUGGCAGCUGCAAGGUGAUCCUAGGUAUCUGCAAU [(M1)-(M2)-(T1)-(T2)-(M)'-(T)'_Design6] | 30.4 | 24.7 | 49.3 | 52.2 | 25.9
CGGUUUGUGAUGGAUACCAGCAGAGAAAACGUUUAUCCUAACAUGAGGAUCACCCAUGUAUGCCCUUGGCAGCUGUUGUGGGCUG [8.U] | 34.5 | – | 60.3 | – | 43.5
GCCGGGCCCUCGGCCGCCACUGAGAGAGUCGUGUGAACAUGAGGAUCACCCAUGUAAUAUAUAUACAGGACCGGGAGGGCCCGGC [4.W] | 11.9 | 13.3 | 21.8 | 13.9 | 11.9
UCCAGACAUGAGGAUCACCCAUGUUGUGAUACCAGAACCGUGGAGUUCCCUUGGCAGCACUAAGAAGUUCCUGGAUCAGCUAGCG [theeternabot_sameState_MS2_Theo_A_9] | 29.9 | – | 36.2 | – | 30
AAAAGAGGUGGAAGGAGCGGGAGACAUGAGGAUCACCCAUGUGAAGUGACGAAAGGAUCAGCCCAGGUAGGUCGCCAUGUCGAAA [yuiiumullin] | 31 | 43.9 | 73.2 | 25.9 | 41.3
UAUAUAUAUAUUGAUACCAGCAGAGAAAACAUAUAUCCUAACAUGAGGAUCACCCAUGUAUGCCCUUGGCAGCGAUAUAUAUAUA [8.A] | 24.9 | – | 28.1 | – | 23.5
